Results: article PMC7305028
Where two headings read alike, the source gives them in different places.

How the values were obtained:
Experiment in all cases: native MS
FapF [1] = target: FapF
FapF [2] = target: FapF; remark: listed apart in the source
FapF [3] = target: FapF; remark: listed apart in the source

Substance | stoichiometry N (per FapF trimer) (FapF [1]) | stoichiometry N (FapF [2]) | stoichiometry N (FapF [1]) | stoichiometry N (FapF [3])
FapC (natural protein) | 1 | – | – | –
FapD (natural protein) | 1 | – | – | –
FapE (natural protein) | 1 | – | – | –
FapF (natural protein) | – | 3 | 3 | 3
